14 molecules from US20260248946A1 (TUOJIE BIOTECH SHANGHAI, published 2026) can be followed below.

B1: hAb015-10 (antibody, human IgG1, kappa, V domains shown)
VH: EVQLVQSGAEVKKPGSSVKVSCKASGSSFSSYGINWVKQAPGQGLEWIGEIFPRSGNTYYNEKFEGRATLTADKSTSTAYMELRSLRSEDTAVYYCAKGDLGDFDYWGQGTTVTVSS
VL: DFVMTQTPLSLPVTPGEPASISCRSSQSIVHSDGNTYFEWYLQKPGQSPKLLIYKVSNRFSGVPDRFSGSGSGTDFTLKISRVEAEDVGVYYCFQGSHVPWTFGGGTKVEIKR
notes: Humanized antibody; also called hAb015-10 humanized antibody; humanized mAb015
B2: hAb017-10 (antibody, human IgG1, kappa, V domains shown)
VH: EVQLVQSGAEVKKPGASVKVSCKASGYTFTTYGINWVKQAPGQGLEWIGEIYPRSGNIYYNEKFKGKATLTADKSTSTAYMELRSLRSDDTAVYYCARGSDYDGDFAYWGQGTLVTVSS
VL: B1 VL with F2V, S32H, F38L, K50Q
notes: Humanized antibody; also called hAb017-10 humanized antibody
B3: ADC-8 (antibody, human IgG1, kappa, V domains shown)
VH: EVQLVESGGGLVQPGGSLRLSCAASGYTFSSYWIEWVRQAPGKGLEWIGEILPGGGDTNYNEIFKGRATFSADTSKNTAYLQMNSLRAEDTAVYYCTRRVPIRLDYWGQGTLVTVSS
VL: DIQLTQSPSSLSASVGDRVTITCKASQSVDYEGDSFLNWYQQKPGKAPKLLIYAASNLESGVPSRFSGSGSGTDFTLTISSLQPEDFATYYCQQSNEDPLTFGQGTKVEIKR
modifications: MC-VC-PAB-MMAE coupled to cysteines after TCEP reduction; positions not given; MC-VC-PAB-MMAE coupled to cysteines after TCEP reduction; positions not given; mean n=3.59 per antibody
B4: ADC-7 (antibody, human IgG1, kappa, V domains shown)
VH: B1 VH
VL: B1 VL
modifications: compound D coupled to cysteines after TCEP reduction; positions not given; compound D (exatecan-type linker-drug, Topo I inhibitor) coupled to cysteines after TCEP reduction; positions not given; mean n=5.84 per antibody
B5: ADC-5 (antibody, human IgG1, kappa, V domains shown)
VH: B1 VH
VL: B1 VL
modifications: compound D coupled to cysteines after TCEP reduction; positions not given; compound D (exatecan-type linker-drug, Topo I inhibitor) coupled to cysteines after TCEP reduction; positions not given; mean n=1.81 per antibody
notes: Antibody-drug conjugate of hAb015-10; also called HAB015-10-cys-D, with a DAR value of about 2
B6: ADC-6 (antibody, human IgG1, kappa, V domains shown)
VH: B1 VH
VL: B1 VL
modifications: compound D coupled to cysteines after TCEP reduction; positions not given; compound D (exatecan-type linker-drug, Topo I inhibitor) coupled to cysteines after TCEP reduction; positions not given; mean n=3.46 per antibody
B7: ADC-2 (antibody, human IgG1, kappa, V domains shown)
VH: B1 VH
VL: B1 VL
modifications: compound A coupled to cysteines after TCEP reduction; positions not given; compound A (Malei-PEG2-vc-PAB-MMAE) coupled to cysteines after TCEP reduction; positions not given; mean n=3.68 per antibody
notes: Antibody-drug conjugate of hAb015-10; DAR 3.68; also called hAb015-10-cys-Malei-PEG2-vc-PAB-MMAE
B8: ADC-4 (antibody, human IgG1, kappa, V domains shown)
VH: B1 VH
VL: B1 VL
modifications: compound C coupled to cysteines after TCEP reduction; positions not given; compound C (linker-drug) coupled to cysteines after TCEP reduction; positions not given; mean n=4.52 per antibody
notes: Antibody-drug conjugate of hAb015-10; DAR 4.52; also called hAb015-10-cys-C
B9: ADC-1 (antibody, human IgG1, kappa, V domains shown)
VH: B1 VH
VL: B1 VL
modifications: compound B coupled to cysteines after TCEP reduction; positions not given; compound B (eribulin-derivative linker-drug) coupled to cysteines after TCEP reduction; positions not given; mean n=3.06 per antibody
notes: Antibody-drug conjugate of hAb015-10; DAR 3.06; also called hAb015-10-cys-B
B10: ADC-3 (antibody, human IgG1, kappa, V domains shown)
VH: B1 VH
VL: B1 VL
modifications: MC-vc-PAB-MMAE coupled to cysteines after TCEP reduction; positions not given; MC-vc-PAB-MMAE coupled to cysteines after TCEP reduction; positions not given; mean n=3.09 per antibody
notes: Antibody-drug conjugate of hAb015-10; DAR 3.09; also called hAb015-10-cys-MC-vc-PAB-MMAE
B11: mAb015 (antibody, V domains shown)
VH: QVQLQQSGAELARPGASVKLSCKASGSSFTSYGINWVKQRTGQGLEWIGEIFPRSGNTYYNEKFEGKATLTADKSSSTAYMELRSLTSEDSAVYFCAKGDLGDFDYWGQGTTLTVSS
VL: DFLMTQTPLSLPVRLGDQASISCRSSQSIVHSDGNTYFEWYLQKPGQSPKLLIYKVSNRFSGVPDRFSGSGSGTDFTLKISRVEAEDLGVYYCFQGSHVPWTFGGGTKLEIK
notes: Mouse monoclonal antibody from hybridoma; also called 83B2G2
B12: mAb016 (antibody, V domains shown)
VH: QVQLQQSGAELARPGASVKLSCKASGYIFTNYGIIWVKQRTGQGLEWIGDIFPGSGNTYYNENFKGKATLTADKSSSTAYMELRSLTSEDSAVYFCSRGELGDFDYWGQGTTLTVSS
VL: B11 VL with D1V, F2V, R14S, S28N, N35T, F38L, V90I
B13: mAb017 (antibody, V domains shown)
VH: QVQLQQSGAELARPGASVKLSCKASGYTFTTYGINWVKQRTGQGLEWIGEIYPRSGNIYYNEKFKGKATLTADKSSSTAYMELRSLTSEDSAVYFCARGSDYDGDFAYWGQGTLVTVSA
VL: B11 VL with F2V, R14S, S32H, F38L, K108Q
notes: Mouse monoclonal antibody from hybridoma; also called 86F11F6
B14: SN8 (antibody, human IgG1, kappa, V domains shown)
VH: B3 VH
VL: B3 VL
notes: also called positive control antibody; the antibody in Polivy (polatuzumab vedotin)

The EC50 is the concentration giving half of the maximal effect. A low value points to a more potent agent. Usually EC50 (read off the curve) stands for the concentration needed to bring the measured effect to its halfway point. Read a low EC50 (read off the curve) as a more potent agent. As usually defined, the Kd is a measure of binding affinity in units of concentration. Low values mean tighter binding, high ones weaker binding.

Where a chain is given by its changes, count along the chain named.

The target of one experiment is T1, human CD79B on the surface of cells (DoHH2 / DOHH-2, WSU-DLCL2) (human, UniProt P40259 29-229).
T1 construct: whole, on cells; also called CD79B protein on the surface of DoHH2 cells; DoHH2 cell
T1 sequence (looked up): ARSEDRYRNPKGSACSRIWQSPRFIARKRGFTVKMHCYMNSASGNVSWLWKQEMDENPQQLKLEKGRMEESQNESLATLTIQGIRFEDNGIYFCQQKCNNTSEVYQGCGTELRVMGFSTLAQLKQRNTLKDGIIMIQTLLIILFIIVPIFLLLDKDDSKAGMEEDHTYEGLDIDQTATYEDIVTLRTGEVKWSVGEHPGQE
Put plainly: FACS on DoHH2 cells.
As to B1, a half-maximal effect (EC50) was put at 0.4 nM.
On the same count and under the same terms, next, B2: 0.55 nM.

For a further experiment, the target named is T1, human CD79B on the surface of cells …. Put plainly: cell-based or functional assay.
As for B3, the “Endocytosis rate (4 h), DoHH2 cells” value stood at 76%.
Still for that read-out and setting: next, B4: 68%.
With B5, the “Endocytosis rate (4 h), DoHH2 cells” value was 76%.
On the same count and under the same terms, next, B6: 75%; B7: 66%.
For B8, the “Endocytosis rate (4 h), DoHH2 cells” value was 81%.
On to B9, for which the “Endocytosis rate (4 h), DoHH2 cells” value is 73%.
The same measure, in the same setting: as for B10, the figure is 70%.

The next experiment shares this target. Put plainly: cell-based or functional assay. This is another data set of the same source.
For the molecule B3, the “IC50 of in vitro proliferation, DoHH2 cells (MTT, 72 h)” value (“IC50 … DoHH2 cells (MTT, 72 h)” below) is 0.0806 µg/mL and the “IC50 of in vitro proliferation, WSU-DLCL2 cells (MTT, 72 h)” value (“IC50 … WSU-DLCL2 cells (MTT, 72 h)” below) came out at 0.117 µg/mL.
Take B4: the “IC50 … DoHH2 cells (MTT, 72 h)” value is 0.002 µg/mL and the “IC50 … WSU-DLCL2 cells (MTT, 72 h)” value was 0.0534 µg/mL.
The like results for B5 were, in that order, 0.0085 µg/mL and 0.0683 µg/mL.
In the case of B6, the “IC50 … DoHH2 cells (MTT, 72 h)” value amounted to 0.0033 µg/mL and the “IC50 … WSU-DLCL2 cells (MTT, 72 h)” value amounted to 0.0542 µg/mL.
The like results for B10 were, in that order, 0.0033 µg/mL and 0.0059 µg/mL.

The target is the same in another experiment. Put plainly: FACS on DoHH2 cells. The source holds these as a separate data set. How it is done: 3) Assay on anti-human CD79B mouse monoclonal antibodies by FACS The cell suspension of DoHH2 cells was centrifuged, resuspended in PBS containing 0.1% BSA, and counted. 100 μL of antibody diluted in a 1:10 ratio from 100 nM was added, and the cells were incubated at room temperature for 1 h and washed three times. Then Anti-Mouse IgG (Fc specific)-FITC secondary antibody was added, and the cells were incubated at room temperature for 30 min away from the light, washed three times, gently resuspended in PBS containing 0.1% BSA, and loaded on the machine for assay.
Take B11: the “EC50 (read off the curve)” value is about 0.03 µg/mL.
Same read-out and setting: as for B12, the figure is about 0.02 µg/mL; as for B13, about 0.02 µg/mL.
For the molecule B14, the concentration giving a half-maximal response (EC50 (read off the curve)) was about 0.09 µg/mL.

In a further experiment the target is T2, fusion protein of human CD79B extracellular domain (ECD) and His tag (human, UniProt P40259 29-159).
T2 construct: also called human CD79B ECD-His; Human CD79B-His protein
T2 sequence: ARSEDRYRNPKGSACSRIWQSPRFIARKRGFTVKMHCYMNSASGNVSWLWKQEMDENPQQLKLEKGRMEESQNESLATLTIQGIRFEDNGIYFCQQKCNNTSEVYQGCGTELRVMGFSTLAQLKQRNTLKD
Put plainly: SPR, Human CD79B-His protein. On the technique in general: SPR reads the build-up and loss of mass on a sensor chip optically.
B1 displayed a dissociation constant Kd of 1.5 nM. In other words, the single-digit nanomolar range.
Still for that read-out and setting: as for B2, the figure is 4.3 nM.

A further experiment deals with T2, fusion protein of human CD79B …. The experiment is described as follows: ELISA on Human CD79B-His protein. Background: In an ELISA, binding on a coated surface is turned into a signal by an enzyme label.
Regarding B1, the EC50 is 0.05 nM.
As for B2, the 50% effective concentration (EC50) turned out to be 0.06 nM. The EC50 values of the last two molecules are within 1.5-fold of each other.

For a further experiment, the target named is T3, human CD79B antigen (coated in the ELISA of the anti-human CD79B mouse antibodies) (human, UniProt P40259 29-159).
T3 construct: extracellular domain; The ELISA protocols only say 'antigen'
T3 sequence (looked up): T2 sequence
The experiment is described as follows: ELISA on coated human CD79B antigen. The protocol: 2) Assay on anti-human CD79B mouse monoclonal antibodies by ELISA A 96-well plate was coated with 1 μg/mL antigen at 50 μL/well and incubated in a refrigerator at 4° C. overnight. The next day, the coated antigen plate was washed once (washing solution: 1× PBST). After washing, the plate was blocked with 1% BSA blocking solution prepared in 1× PBST at 37° C. for 1 h. After washing the plate 3 times with 1× PBST, 50 μL of antibody diluted in a 1:10 ratio from 100 nM was added, and the plate was incubated in an incubator at 37° C. for 1 h. After washing the plate 3 times with 1× PBST, 100 μL of goat anti-mouse secondary antibody diluted in a 1:5000 ratio was added, and the plate was incubated in an incubator at 37° C. for 0.5 h. After washing the plate, TMB color development solutions A and B were mixed in a 1:1 ratio for color development. 15 min later, the color development reaction was stopped with 1 N hydrochloric acid. […] value was read at 450 nm on a Spectra Max M5 microplate reader.
In the case of B11, the “EC50 (read off the curve)” value lay in the range of 0.1 to 0.2 nM.
Still for that read-out and setting: as for B12, the figure is 0.1 to 0.2 nM; as for B13, 0.1 to 0.2 nM.

The next experiment concerns the target T4, human CD79B-His protein (Cat. #29750-H08H, Sino Biological) (human, UniProt P40259 29-159).
T4 construct: also called human CD79B protein; CD79B protein
T4 sequence (looked up): T2 sequence
The experiment is described as follows: Biacore T200, antibody captured by anti-human capture antibody on CM5, 1:1 Langmuir fit; EC50. The source says: Experimental procedures: human antibody capture antibodies were covalently coupled to a CM5 biochip according to the method described instructions of the human antibody capture kit for affinity capture of a certain amount of CD79B antibody.
Statistics and analysis of data: data were fitted by BIAevaluation version 4.1, GE software using a (1:1) Langmuir model to obtain affinity values.
B1 showed an EC50 of 0.38 nM.
